Biological target: 125I-PDGF plasma-binding protein of human plasma (about 280,000 mol wt) (human (endogenous in plasma))

percent of added 125I-PDGF bound: 10 to 20%
Substance: 125I-labelled human platelet-derived growth factor II (from UniProt P04085 87-211; P01127 82-190) (ligand)

— publication PMC2112520
